Experimental data: paper PMC2912413

Target: alternative Replication Protein A complex (RPA1, RPA4 and RPA3) (human) (UniProt P27694)
Test: ELISA

Chain of alternative Replication Protein A complex (RPA1, RPA4 and RPA3) (human) (P27694 whole entry, chain 1 of 3): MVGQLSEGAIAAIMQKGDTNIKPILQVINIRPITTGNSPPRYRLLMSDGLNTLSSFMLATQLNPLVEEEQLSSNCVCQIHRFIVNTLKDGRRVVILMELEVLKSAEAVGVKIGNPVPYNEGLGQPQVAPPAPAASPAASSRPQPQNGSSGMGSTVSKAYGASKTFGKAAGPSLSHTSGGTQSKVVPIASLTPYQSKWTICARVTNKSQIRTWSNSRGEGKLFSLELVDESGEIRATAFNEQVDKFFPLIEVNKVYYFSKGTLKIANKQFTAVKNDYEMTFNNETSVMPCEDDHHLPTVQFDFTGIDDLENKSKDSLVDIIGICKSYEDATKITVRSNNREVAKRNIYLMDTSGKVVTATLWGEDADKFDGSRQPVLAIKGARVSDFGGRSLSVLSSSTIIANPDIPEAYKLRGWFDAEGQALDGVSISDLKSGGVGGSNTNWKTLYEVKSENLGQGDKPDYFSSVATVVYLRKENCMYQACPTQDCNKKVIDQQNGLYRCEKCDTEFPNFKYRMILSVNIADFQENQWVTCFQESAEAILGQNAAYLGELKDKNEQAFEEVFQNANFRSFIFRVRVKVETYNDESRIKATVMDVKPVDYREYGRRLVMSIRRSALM
Chain of alternative Replication Protein A complex (RPA1, RPA4 and RPA3) (human) (Q13156 whole entry, chain 2 of 3, further chain): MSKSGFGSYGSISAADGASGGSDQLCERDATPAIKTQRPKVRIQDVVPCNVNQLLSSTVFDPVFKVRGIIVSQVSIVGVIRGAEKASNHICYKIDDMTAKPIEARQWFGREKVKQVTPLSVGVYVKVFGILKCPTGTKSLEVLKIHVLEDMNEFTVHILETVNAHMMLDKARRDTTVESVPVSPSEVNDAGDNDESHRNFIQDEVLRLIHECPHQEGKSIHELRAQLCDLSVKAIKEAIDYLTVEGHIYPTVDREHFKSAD
Chain of alternative Replication Protein A complex (RPA1, RPA4 and RPA3) (human) (P35244 whole entry, chain 3 of 3, further chain): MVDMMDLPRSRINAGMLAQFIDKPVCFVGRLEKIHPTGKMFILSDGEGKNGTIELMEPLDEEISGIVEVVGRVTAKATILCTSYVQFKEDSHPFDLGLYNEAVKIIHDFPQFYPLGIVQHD

human DNA polymerase α/primase complex (from UniProt P09884 1-1462; Q14181 1-598; P49643 1-509; P49642 1-420)
percent decrease of the ELISA interaction compared to RPA: 75%
